Source: paper PMC7531186 (Journal of the American Chemical Society, 2020)
Read-outs that look alike come from different tables or passages of the source.

Legend:
SPOP ΔBACK^28–337 [1] = target: T1, SPOP ΔBACK^28–337 (UniProt O43791 28-337); assay: fluorescence polarisation
SPOP ΔBACK^28–337 [2] = target: T1, SPOP ΔBACK^28–337; assay: fluorescence polarisation; remark: listed apart in the source

T1 sequence (O43791 28-337, stated change not applied): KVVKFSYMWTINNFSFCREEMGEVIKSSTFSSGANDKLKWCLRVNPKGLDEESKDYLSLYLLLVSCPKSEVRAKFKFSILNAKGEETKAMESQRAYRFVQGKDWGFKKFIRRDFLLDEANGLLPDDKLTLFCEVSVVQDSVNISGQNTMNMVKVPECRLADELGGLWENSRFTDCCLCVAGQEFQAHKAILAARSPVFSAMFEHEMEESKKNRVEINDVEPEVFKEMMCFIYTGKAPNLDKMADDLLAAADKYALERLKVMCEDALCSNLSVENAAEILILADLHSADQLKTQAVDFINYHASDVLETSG

Kd (SPOP ΔBACK^28–337 [1]): 17 µM
Kd (SPOP ΔBACK^28–337 [2]): 10 µM
B1: rhodamine-labeled His-cDAXX^495–740 (domain or fragment, UniProt Q9UER7 495-740, looked up)
chain: SPMSSLQISNEKNLEPGKQISRSSGEQQNKGRIVSPSLLSEEPLAPSSIDAESNGEQPEELTLEEESPVSQLFELEIEALPLDTPSSVETDISSSRKQSEEPFTTVLENGAGMVSSTSFNGGVSPHNWGDSGPPCKKSRKEKKQTGSGPLGNSYVERQRSVHEKNGKKICTLPSPPSPLASLAPVADSSTRVDSPSHGLVTSSLCIPSPARLSQTPHSQPPRPGTCKTSVATQCDPEEIIVLSDSD
modifications: labeled with Rhodamine Red C2 maleimide
